In patent US20100239633A1:

Target: Human FcγRIIIa (human) (UniProt P08637)
Test: SPR (Biacore), FcγRIIIa immobilized; 1:1 with mass transfer fit

Ka [M⁻¹]	Kd [nM]	Substance
1.8e+07	5500	G-011 (from UniProt P01854 104-210)
2.1e+08	4.7	mouse IgG2a (antibody)
